Test results published in PMC3093407.

Columns and labels:
[1] = target: CFP-tagged human αB-crystallin wild-type (human) (UniProt P02511); experiment: FRET or BRET; acceptor photobleaching in living HeLa cells co-transfected for 48 h; CFP fusion as donor, YFP fusion as acceptor bleached at 514 nm; FRET efficiency from ten images per construct, three experiments; room temperature
[2] = target: CFP-tagged human αA-crystallin wild-type (human) (UniProt P02489); experiment: as above

Chain of UniProt P02511 (P02511 whole entry, the tested form may be a part): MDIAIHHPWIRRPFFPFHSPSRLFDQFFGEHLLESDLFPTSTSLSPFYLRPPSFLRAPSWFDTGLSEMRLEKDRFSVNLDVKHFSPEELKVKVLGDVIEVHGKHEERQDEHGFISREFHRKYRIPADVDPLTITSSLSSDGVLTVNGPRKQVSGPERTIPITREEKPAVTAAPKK

| FRET efficiency against αBwt/αAwt [1] | FRET efficiency against αAwt/αAwt [2] | Substance |
| --- | --- | --- |
| 2 fold | 50 % higher | YFP-tagged C-terminal truncated human αA-crystallin αA172 (from UniProt P02489 1-172) (domain or fragment) |
|  | 30 % lower | YFP-tagged C-terminal truncated human αA-crystallin αA162 (from UniProt P02489 1-162) (domain or fragment) |
|  | 30 % lower | YFP-tagged C-terminal truncated human αA-crystallin αA168 (from UniProt P02489 1-168) (domain or fragment) |
